According to article PMC314469, “Protein Interaction Networks by Proteome Peptide Scanning” (PLoS Biology, 2004):
One block for each binder: values may come before it.

Legend:
[1] = target: T1, amphyphisin SH3 (AMPH_HUMAN), P49418; test: SPOT array
T1 chain: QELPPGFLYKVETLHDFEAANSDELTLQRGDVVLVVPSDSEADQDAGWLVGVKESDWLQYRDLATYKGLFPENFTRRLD

[2] = target: endophilin SH3 (SH3G2_HUMAN), Q99962; test: SPOT array

- normalised SPOT signal, Boehringer light units (BLU); mean over the file's lines of this peptide [1]: 2140
- normalised SPOT signal, Boehringer light units (BLU); mean over the file's lines of this peptide [2]: 19300
B1: Q9ULI4 1050-1063 (peptide)
chain: GREAPGRPPRAVPK

- normalised SPOT signal, Boehringer light units (BLU); mean over the file's lines of this peptide [1]: 42.4
- normalised SPOT signal, Boehringer light units (BLU); mean over the file's lines of this peptide [2]: 295
B2: O14646 1427-1440 (peptide)
chain: ALKQLDRPEKGLSE

- normalised SPOT signal, Boehringer light units (BLU); mean over the file's lines of this peptide [1]: 44.6
- normalised SPOT signal, Boehringer light units (BLU); mean over the file's lines of this peptide [2]: 1800
B3: Q9ULW0 414-428 (peptide)
chain: GPILPKKPPVKPPT

- normalised SPOT signal, Boehringer light units (BLU); mean over the file's lines of this peptide [1]: 11.4
- normalised SPOT signal, Boehringer light units (BLU); mean over the file's lines of this peptide [2]: 116
B4: Q01167 591-604 (peptide)
chain: GPLGLRRPPSASSD

- normalised SPOT signal, Boehringer light units (BLU); mean over the file's lines of this peptide [1]: 73.1
- normalised SPOT signal, Boehringer light units (BLU); mean over the file's lines of this peptide [2]: 649
B5: Q9BTV6 2-15 (peptide)
chain: GRPRPRRPAQYPAR

- normalised SPOT signal, Boehringer light units (BLU); mean over the file's lines of this peptide [1]: 53.6
- normalised SPOT signal, Boehringer light units (BLU); mean over the file's lines of this peptide [2]: 14.1
B6: Q04197 18-31 (peptide)
chain: AAMHPRRPDGFDGL

- normalised SPOT signal, Boehringer light units (BLU); mean over the file's lines of this peptide [1]: 5440
- normalised SPOT signal, Boehringer light units (BLU); mean over the file's lines of this peptide [2]: 491
B7: Q9NZK9 120-133 (peptide)
chain: ALLTPHRPGRALSF

- normalised SPOT signal, Boehringer light units (BLU); mean over the file's lines of this peptide [1]: 8350
- normalised SPOT signal, Boehringer light units (BLU); mean over the file's lines of this peptide [2]: 1850
B8: Q9H427 273-286 (peptide)
chain: GLWLPRRPARSVGS

- normalised SPOT signal, Boehringer light units (BLU); mean over the file's lines of this peptide [1]: 27.8
- normalised SPOT signal, Boehringer light units (BLU); mean over the file's lines of this peptide [2]: 383
B9: Q96CI4 37-50 (peptide)
chain: GPAGLRRPPDKQPS

- normalised SPOT signal, Boehringer light units (BLU); mean over the file's lines of this peptide [1]: 2440
- normalised SPOT signal, Boehringer light units (BLU); mean over the file's lines of this peptide [2]: 12300
B10: Q9HCE9 774-787 (peptide)
chain: GPERPKRPGSLLAP

- normalised SPOT signal, Boehringer light units (BLU); mean over the file's lines of this peptide [1]: 1000
- normalised SPOT signal, Boehringer light units (BLU); mean over the file's lines of this peptide [2]: 10700
B11: BAC05410 275-289 (peptide)
chain: GPAPPPRPPQLERH

- normalised SPOT signal, Boehringer light units (BLU); mean over the file's lines of this peptide [1]: 14.9
- normalised SPOT signal, Boehringer light units (BLU); mean over the file's lines of this peptide [2]: 43
B12: Q9H8D9 660-673 (peptide)
chain: GQKLPRRPQPGPGE

- normalised SPOT signal, Boehringer light units (BLU); mean over the file's lines of this peptide [1]: 1070
- normalised SPOT signal, Boehringer light units (BLU); mean over the file's lines of this peptide [2]: 972
B13: Q96SD2 167-180 (peptide)
chain: GPLDLRRPMRTVPG

- normalised SPOT signal, Boehringer light units (BLU); mean over the file's lines of this peptide [1]: 4840
- normalised SPOT signal, Boehringer light units (BLU); mean over the file's lines of this peptide [2]: 111
B14: Q14163 165-178 (peptide)
chain: GQLQPSRPTRARGT

- normalised SPOT signal, Boehringer light units (BLU); mean over the file's lines of this peptide [1]: 54.3
- normalised SPOT signal, Boehringer light units (BLU); mean over the file's lines of this peptide [2]: 212
B15: Q99687 39-53 (peptide)
chain: GPYGPHRPPQPLPP

- normalised SPOT signal, Boehringer light units (BLU); mean over the file's lines of this peptide [1]: 25.9
- normalised SPOT signal, Boehringer light units (BLU); mean over the file's lines of this peptide [2]: 28.8
B16: Q9BW19 13-26 (peptide)
chain: GNIELKRPLIKAPS

- normalised SPOT signal, Boehringer light units (BLU); mean over the file's lines of this peptide [1]: 23.6
- normalised SPOT signal, Boehringer light units (BLU); mean over the file's lines of this peptide [2]: 142
B17: Q9P2C5 54-67 (peptide)
chain: GQSAPRRPSAGDGA

- normalised SPOT signal, Boehringer light units (BLU); mean over the file's lines of this peptide [1]: 211
- normalised SPOT signal, Boehringer light units (BLU); mean over the file's lines of this peptide [2]: 135
B18: O75016 262-275 (peptide)
chain: GRDFLQRPGRQPQA

- normalised SPOT signal, Boehringer light units (BLU); mean over the file's lines of this peptide [1]: 2140
- normalised SPOT signal, Boehringer light units (BLU); mean over the file's lines of this peptide [2]: 48.7
B19: Q12972 185-198 (peptide)
chain: GNLDIQRPKRKRKN

- normalised SPOT signal, Boehringer light units (BLU); mean over the file's lines of this peptide [1]: 1120
- normalised SPOT signal, Boehringer light units (BLU); mean over the file's lines of this peptide [2]: 175
B20: O60795 134-147 (peptide)
chain: GMEKIWRPNRVFSL

- normalised SPOT signal, Boehringer light units (BLU); mean over the file's lines of this peptide [1]: 108
- normalised SPOT signal, Boehringer light units (BLU); mean over the file's lines of this peptide [2]: 90.7
B21: Q9H4V5 197-210 (peptide)
chain: GLSTLQRPLKDVTD

- normalised SPOT signal, Boehringer light units (BLU); mean over the file's lines of this peptide [1]: 9.6
- normalised SPOT signal, Boehringer light units (BLU); mean over the file's lines of this peptide [2]: 259
B22: O60307 800-813 (peptide)
chain: GPAGPKRPVFILGE

- normalised SPOT signal, Boehringer light units (BLU); mean over the file's lines of this peptide [1]: 33
- normalised SPOT signal, Boehringer light units (BLU); mean over the file's lines of this peptide [2]: 55.2
B23: Q99946 106-119 (peptide)
chain: ALLEPRRPPHDYMP

- normalised SPOT signal, Boehringer light units (BLU); mean over the file's lines of this peptide [1]: 32.8
- normalised SPOT signal, Boehringer light units (BLU); mean over the file's lines of this peptide [2]: 39.5
B24: Q9HD26 258-271 (peptide)
chain: GRNDLKRPMQAPPG

- normalised SPOT signal, Boehringer light units (BLU); mean over the file's lines of this peptide [1]: 51.5
- normalised SPOT signal, Boehringer light units (BLU); mean over the file's lines of this peptide [2]: 43.7
B25: O00467 395-408 (peptide)
chain: GQKQPKRPRSESSS

- normalised SPOT signal, Boehringer light units (BLU); mean over the file's lines of this peptide [1]: 66.4
- normalised SPOT signal, Boehringer light units (BLU); mean over the file's lines of this peptide [2]: 486
B26: O15027 229-243 (peptide)
chain: GQQLPPRPPQSSSV

- normalised SPOT signal, Boehringer light units (BLU); mean over the file's lines of this peptide [1]: 43.4
- normalised SPOT signal, Boehringer light units (BLU); mean over the file's lines of this peptide [2]: 57.4
B27: P18887 443-457 (peptide)
chain: GPSSPQKPPTPEET

- normalised SPOT signal, Boehringer light units (BLU); mean over the file's lines of this peptide [1]: 33.9
- normalised SPOT signal, Boehringer light units (BLU); mean over the file's lines of this peptide [2]: 193
B28: P81489 112-126 (peptide)
chain: GPGKPERPPPQGGD

- normalised SPOT signal, Boehringer light units (BLU); mean over the file's lines of this peptide [1]: 13100
- normalised SPOT signal, Boehringer light units (BLU); mean over the file's lines of this peptide [2]: 28600
B29: Q9P0U7 35-48 (peptide)
chain: GPRPPPRPARHRSH

- normalised SPOT signal, Boehringer light units (BLU); mean over the file's lines of this peptide [1]: 46.8
- normalised SPOT signal, Boehringer light units (BLU); mean over the file's lines of this peptide [2]: 45.8
B30: Q9Y687 56-69 (peptide)
chain: GPAPLRRPDSSDDR

- normalised SPOT signal, Boehringer light units (BLU); mean over the file's lines of this peptide [1]: 26.1
- normalised SPOT signal, Boehringer light units (BLU); mean over the file's lines of this peptide [2]: 36.9
B31: Q9NUC1 730-743 (peptide)
chain: ALLDPRRPEIPTEQ

- normalised SPOT signal, Boehringer light units (BLU); mean over the file's lines of this peptide [1]: 2210
- normalised SPOT signal, Boehringer light units (BLU); mean over the file's lines of this peptide [2]: 306
B32: O15085 1403-1416 (peptide)
chain: GNDDPRRPSRSPPS

- normalised SPOT signal, Boehringer light units (BLU); mean over the file's lines of this peptide [1]: 37.1
- normalised SPOT signal, Boehringer light units (BLU); mean over the file's lines of this peptide [2]: 75.8
B33: Q9C095 222-236 (peptide)
chain: GNAGPRRPPGDPST

- normalised SPOT signal, Boehringer light units (BLU); mean over the file's lines of this peptide [1]: 243
- normalised SPOT signal, Boehringer light units (BLU); mean over the file's lines of this peptide [2]: 684
B34: Q13495 380-393 (peptide)
chain: GPSPPYRPEKLSSP

- normalised SPOT signal, Boehringer light units (BLU); mean over the file's lines of this peptide [1]: 20.9
- normalised SPOT signal, Boehringer light units (BLU); mean over the file's lines of this peptide [2]: 2840
B35: O00268 106-119 (peptide)
chain: GPPSPRRPLVPAGP

- normalised SPOT signal, Boehringer light units (BLU); mean over the file's lines of this peptide [1]: 2.1
- normalised SPOT signal, Boehringer light units (BLU); mean over the file's lines of this peptide [2]: 55.2
B36: Q9H4N7 178-191 (peptide)
chain: GRAWLRRPHPRDVG

- normalised SPOT signal, Boehringer light units (BLU); mean over the file's lines of this peptide [1]: 42.9
- normalised SPOT signal, Boehringer light units (BLU); mean over the file's lines of this peptide [2]: 93.3
B37: O75761 132-145 (peptide)
chain: GQRRLRRPLILGLG

- normalised SPOT signal, Boehringer light units (BLU); mean over the file's lines of this peptide [1]: 19.8
- normalised SPOT signal, Boehringer light units (BLU); mean over the file's lines of this peptide [2]: 20.9
B38: Q9NPG4 302-315 (peptide)
chain: GQVILRRPLDYEKN

- normalised SPOT signal, Boehringer light units (BLU); mean over the file's lines of this peptide [1]: 3260
- normalised SPOT signal, Boehringer light units (BLU); mean over the file's lines of this peptide [2]: 166
B39: Q9NRA6 251-264 (peptide)
chain: GNANIQRPSRKSVN

- normalised SPOT signal, Boehringer light units (BLU); mean over the file's lines of this peptide [1]: 48.2
- normalised SPOT signal, Boehringer light units (BLU); mean over the file's lines of this peptide [2]: 232
B40: P20810 625-639 (peptide)
chain: GQDKPVKPPTKKSE

- normalised SPOT signal, Boehringer light units (BLU); mean over the file's lines of this peptide [1]: 1370
- normalised SPOT signal, Boehringer light units (BLU); mean over the file's lines of this peptide [2]: 5310
B41: O14776 57-71 (peptide)
chain: GPPPPPRPPFGRPP

- normalised SPOT signal, Boehringer light units (BLU); mean over the file's lines of this peptide [1]: 8400
- normalised SPOT signal, Boehringer light units (BLU); mean over the file's lines of this peptide [2]: 10700
B42: Q12984 78-91 (peptide)
chain: GPQRPRRPAKDAQP
